Results on 21 substances are retold here after patent publication US11306156.

A word on the Kd: it is the concentration at which binding is half-saturated.

Test [1] has as its target D3H44 light chain V133G_S176D_T178D_T180E. Put plainly: LCCA (co-expression, SPR tag read-out), L1:L2 DNA 1:3 normalised to 1:1; competing light chain m7.
Test [2] has as its target D3H44 light chain Q124E_V133G_S176D_T178E_T180E. The description is as above.
Test [3] shares this target. Put plainly: LCCA (co-expression, SPR tag read-out), L1:L2 DNA 1:3 normalised to 1:1; competing light chain m8.
Test [4] has as its target D3H44 light chain Q124E_V133G_S176D_T178D_T180E. The test is described as above.
The target is the same in test [5]. Put plainly: LCCA (co-expression, SPR tag read-out), L1:L2 DNA 1:3 normalised to 1:1; competing light chain m7.
Test [6] has as its target tissue factor (TF) antigen (UniProt P13726). Nature of the test: SPR (ProteOn), Fab captured via anti-penta-His, TF injected, 1:1 fit.
Test [7] has the same target. Nature of the test: SPR (ProteOn), Fab captured via anti-penta-His, TF injected, 1:1 fit; reference wild-type D3H44 Fab.
Test [8] shares this target. Put plainly: SPR, His-captured Fab, TF as analyte, 1:1 fit; batch C (+). (SPR reads the build-up and loss of mass on a sensor chip optically.)
For test [9] the target is unchanged. Nature of the test: SPR, His-captured Fab, TF as analyte; against wild-type D3H44 Fab; batch C (+).
Test [10] has the same target. Put plainly: SPR (ProteOn XPR36), Fab captured on anti-penta His surface, TF injected, 1:1 fit; reference wild-type D3H44 Fab.
For test [11] the target is unchanged. Put plainly: SPR (ProteOn XPR36), Fab captured on anti-penta His surface, TF injected, 1:1 fit.
For test [12], the target named is tissue factor (TF) antigen (human (from the antibody's name 'anti-human tissue factor'; not stated for the antigen lot in the assay)) (UniProt P13726). Put plainly: SPR (ProteOn XPR36), Fab captured on anti-penta His, TF analyte; against wild-type D3H44 Fab; batch C (+).
Test [13] shares this target. Put plainly: SPR (ProteOn XPR36): Fab captured via His tag on anti-penta His surface, TF injected, 1:1 fit; batch C (+).
Test [14] has as its target tissue factor (TF) antigen (UniProt P13726). Nature of the test: SPR (ProteOn XPR36), Fab captured on anti-penta-His surface, TF injected as analyte, 1:1 fit; batch C (marked +).
For test [15] the target is unchanged. Put plainly: SPR (ProteOn XPR36), Fab captured on anti-penta-His surface, TF injected as analyte, 1:1 fit; batch C (marked +); reference wild-type D3H44 Fab.
Test [16] has as its target D3H44 Fab heavy chain S186K, ABD2-His6 tagged. Put plainly: LCCA, SPR of light chain tags; L1:L2 DNA 1:9 normalized to 1:1; competing light chain m16.
The target in test [17] is D3H44 Fab heavy chain L143E_K145T_Q179E, ABD2-His6 tagged. The description is as above.
In test [18] the target is D3H44 Fab heavy chain S186K, ABD2-His6 tagged. Nature of the test: LCCA, SPR of light chain tags; L1:L2 DNA 1:3 normalized to 1:1; competing light chain m16.
Test [19] has as its target D3H44 Fab heavy chain L143E_K145T_Q179E, ABD2-His6 tagged. The test is described as above.
Test [20] addresses D3H44 Fab heavy chain Q179R, ABD2-His6 tagged. Nature of the test: LCCA, SPR of light chain tags; L1:L2 DNA 1:9 normalized to 1:1; competing light chain m16.
For test [21] the target is unchanged. Nature of the test: LCCA, SPR of light chain tags; L1:L2 DNA 1:3 normalized to 1:1; competing light chain m16.
Test [22] deals with tissue factor (TF) antigen (UniProt P13726). Put plainly: SPR; log change of median KD against wild-type D3H44 Fab; batch C (+).
Test [23] has the same target. Nature of the test: SPR, Fab captured by anti-penta-His, TF injected, 1:1 fit; batch C (+).

Several values for one entry are separate records, joined by “and”; a condition that tells them apart may be missing. Identical values can stand only once.

Turning to D3H44 Fab heavy chain L124E_K145M_Q179E, the H1L1:H1L2 normalized median ratio in test [1] and in [2] was 6 parts of 100 in each case.
For the substance D3H44 Fab heavy chain L124R_D146N_Q179K, the H2L2:H2L1 normalized median ratio is 89 parts of 100 in test [3] and 90 parts of 100 in test [2].
D3H44 Fab heavy chain L124R_S186R: the values for the H2L2:H2L1 normalized median ratio in test [4] and in [5] were 95 parts of 100 and 92 parts of 100, respectively.
Substance “D3H44 Fab heterodimer (H1L1) of LCCA Set # 9397: H1 L124R_Q179K, L1 V133G_Q160E_S176D_T180E” registered a Kd in [6] of 0.19 nM. In [7], this substance yielded a change in median KD compared to wild type, -(log(KD design)-log(KD wt)) of -0.08.
On to “D3H44 Fab heterodimer (H1L1) of LCCA Sets # 9120, 9121: H1 L124E_H172T, L1 V133G_N137K_S174R_S176R”, for which the Kd in test [6] turned out to be 0.13 nM. In addition, the change in median KD compared to wild type, -(log(KD design)-log(KD wt)) in [7] was 0.03 and 0.08.
The substance “D3H44 Fab heterodimer (H1L1) of LCCA Sets # 9419, 9420, 9423, 9425, 9426: H1 L124R_Q179K, L1 V133G_S176D_T178E_T180E” came in with a Kd in test [6] of 0.23 nM. In [7], the change in median KD compared to wild type, -(log(KD design)-log(KD wt)) was -0.16.
As for “D3H44 Fab heterodimer H1L1 of LCCA Set # 9813 (H1 Q39E_K145T_H172R_Q179E; L1 Q38R_S131K)”, the Kd in test [8] came to 0.18 nM. In test [9], this substance had a Change in median values of KD compared to wild type (-(log(KD design)-log(KD wt))) of -0.05 log.
Regarding “D3H44 Fab heterodimer H1L1 of LCCA Set # 9848 and 9847 (H1 S186K; L1 Q124E_S176L_T180E)”, the Kd in [8] was found to be 0.15 nM. Besides, in test [9], the Change in median values of KD compared to wild type (-(log(KD design)-log(KD wt))) came out at 0.03 log.
“D3H44 Fab heterodimer H1L1 of LCCA Set # 9885 and 9886 (H1 S186R; L1 Q124E_S176L_T180E)”: the Kd in [8] came out at 0.18 nM. Besides, the Change in median values of KD compared to wild type (-(log(KD design)-log(KD wt))) in test [9] is -0.06 log.
The substance “D3H44 Fab heterodimer, H1 L124R_S186R / L1 V133G_S176D_T178E_T180E (H1L1 Fab of LCCA Sets # 9541, 9544, 9542)” registered a Change in median values of KD of h1l1 Fab heterodimer compared to wild type (-(log(KD design)-log(KD wt))) in test [10] of -0.15. Further, the equilibrium dissociation constant (Kd) in test [11] was found to be 0.22 nM.
“D3H44 Fab heterodimer, H1 Q39E_K145T_Q179E / L1 Q38R_S131K (H1L1 Fab of LCCA set 9814)” returned a Change in median values of KD of h1l1 Fab heterodimer compared to wild type (-(log(KD design)-log(KD wt))) in test [12] of -0.01. In test [13], this substance gave a dissociation constant (Kd) of 0.16 nM.
For “D3H44 Fab heterodimer, H1 Q39E_L143E_K145T_H172R / L1 Q38R_Q124R_Q160K_T178R (H1L1 Fab of LCCA set 9818)”, the Change in median values of KD of h1l1 Fab heterodimer compared to wild type (-(log(KD design)-log(KD wt))) in test [12] is -0.07. Further, the equilibrium dissociation constant (Kd) in [13] worked out at 0.18 nM.
For the substance “D3H44 Fab heterodimer, H1 Q39E_L143E_K145T_H172R_Q179E / L1 Q38R_Q124R_Q160K_T178R (H1L1 Fab of LCCA set 9819)”, in [12], the Change in median values of KD of h1l1 Fab heterodimer compared to wild type (-(log(KD design)-log(KD wt))) was found to be 0.03. In test [13], this substance registered a Kd of 0.15 nM.
“D3H44 H1L1 Fab heterodimer, H1 Q39E_L143E_K145T_Q179E, L1 Q38R_Q124R_Q160K_T178R” registered a Kd in test [14] of 0.2 nM. Besides, the Change in median KD of h1l1 Fab heterodimer compared to wild type (-(log(KD design)-log(KD wt))) (log(KD) difference) in [15] is -0.1.
The like results for “D3H44 H1L1 Fab heterodimer, H1 Q39R_D146G_H172R_Q179K, L1 Q38E_Q124E_Q160E_T180E” were, in that order, 0.07 nM and 0.38.
Turning to “D3H44 H1L1 Fab heterodimer, H1 Q39R_H172R_Q179K, L1 Q38E_Q124E_Q160E_T180E”, the Kd in test [14] stood at 0.24 nM. In test [15], this substance came in with a Change in median KD of h1l1 Fab heterodimer compared to wild type (-(log(KD design)-log(KD wt))) (log(KD) difference) of -0.18.
As for “D3H44 light chain Q124E_Q160E_T180E, HA or FLAG tagged”, the H2L2:H2L1 normalized median ratio in test [16] and in test [18] was 94% in each case. Further, the results for the H1L1:H1L2 normalized median ratio in test [17] and in test [19] were 22% and 9%, respectively.
In the case of “D3H44 light chain Q124E_T178E_T180E, HA or FLAG tagged”, the H2L2:H2L1 normalized median ratio in test [16] is 89%; in test [20] it was 90%; in [18], 95%; in [21], 94%. Further, the H1L1:H1L2 normalized median ratio in test [17] and in test [19] was 8% throughout.
As to “H1L1 Fab heterodimer of LCCA sets 9812 and 9811 (D3H44 Fab, H1 Q179R, L1 Q124E_T178E_T180E)”, the Change in median values of KD of h1l1 Fab heterodimer compared to wild type (-(log(KD design)-log(KD wt))) in test [22] is -0.01 log units. In test [23], this substance had a dissociation constant Kd of 0.16 nM.
The substance “H1L1 Fab heterodimer of LCCA sets 9858, 9853, 9855, 9862, 9863 and 9860 (D3H44 Fab, H1 S186K, L1 Q124E_T180E)” came in with a Change in median values of KD of h1l1 Fab heterodimer compared to wild type (-(log(KD design)-log(KD wt))) in test [22] of 0.46 log units. This substance also registered a Kd in [23] of 0.06 nM.
As for “H1L1 Fab heterodimer of LCCA sets 9898, 9893, 9891 and 9896 (D3H44 Fab, H1 S186R, L1 Q124E_T180E)”, the Change in median values of KD of h1l1 Fab heterodimer compared to wild type (-(log(KD design)-log(KD wt))) in test [22] worked out at 0.36 log units. The same substance had an equilibrium dissociation constant (Kd) in test [23] of 0.07 nM.
